The source of these data is doi:10.1101/591263.

This series deals with dSpCas9-GFP (Streptococcus pyogenes). As to the kind of experiment: MST. As to conditions: MST: 20 mM HEPES pH 7.5, 150 mM KCl, 1 mM DTT, 10 mM MgCl2.

Turning to VEGFA3 target (30 bp) with VEGFA3 sgRNA, the Kd turned out to be 49.6 nM. The figure for EMX1 target (30 bp) with EMX1 sgRNA is 10.9 nM; for “VEGFA3 off-target (30 bp) with VEGFA3 sgRNA” it is 142 nM.

Consider EMX1 off-target (30 bp) with EMX1 sgRNA, for which the Kd was found to be 27.2 nM.
